Test results reported in PMC5095173, “Disulfide-activated protein kinase G Iα regulates cardiac diastolic relaxation and fine-tunes the Frank–Starling response” (Nature Communications, 2016).

B1: Hadhb pS198 (protein, UniProt Q60587 35-475, looked up)
Trifunctional enzyme subunit …: SAPAVQTKSKKTLAKPNLKNIVVVEGVRIPFLLSGTSYKDLMPHDLARAALSGLLYRTNIPKDVVDYIIFGTVIQEVKTSNVAREAALGAGFSDKTPAHTVTMACISSNQAMTTAVGLIASGQCDVVVAGGVELMSDVPIRHSRNMRKMMLDLNKAKTLAQRLSLLTKFRLNFLSPELPAVAEFSTNETMGHSADRLAAAFAVSRMEQDKYALRSHSLAKKAQDEGHLSDIVPFKVPGKDTVSKDNGIRPSSLEQMAKLKPAFIKPYGTVTAANSSFLTDGASAMLIMSEDRALAMGYKPKAYLRDFIYVSQDPKDQLLLGPTYATPKVLEKAGLTMNDIDAFEFHEAFSGQILANFKAMDSDWFAQNYMGRKTKVGAPPLEKFNIWGGSLSLGHPFGATGCRLVMAAANRLRKDGGQYALVAACAAGGQGHAMIVEAYPK
modifications: phosphorylated at S198
B2: Pfkfb2 pS486 (protein, UniProt Q9JJH5 2-557, looked up)
6-phosphofructo-2-kinase/fruct …: SENSTFSTEDSSSSSYKPHASNLRRAGKKCSWASYMTNSPTLIVMIGLPARGKTYVSKKLTRYLNWIGVPTKVFNLGVYRREAVKSYKSYDFFRHDNEEAMKIRKQCALVALEDVKAYFTEESGQIAVFDATNTTRERRDMILNFAKQNAFKVFFVESVCDDPDVIAANILEVKVSSPDYPERNRENVMEDFLKRIECYKVTYQPLDPDNYDKDLSFIKVMNVGQRFLVNRVQDYIQSKIVYYLMNIHVHPRTIYLCRHGESEFNLLGKIGGDSGLSLRGKQFAQALKKFLEEQEIQDLKVWTSQLKRTIQTAESLGVTYEQWKILNEIDAGVCEEMTYSEIEQRYPEEFALRDQEKYLYRYPGGESYQDLVQRLEPVIMELERQGNVLVISHQAVMRCLLAYFLDKGADELPYLRCPLHIIFKLTPVAYGCKVETITLNVEAVDTHRDKPTHNFPKSQTPVRMRRNSFTPLSSSNTIRRPRNYSVGSRPLKPLSPLRALDMQEGADQPKTQVQQGSAQATEHLQKALEFANGHREVENVLAKHRRPSMASLTLLS
modifications: phosphorylated at S486
B3: Wbp11 pS600 (protein, UniProt Q5PQQ2 1-641, looked up)
WW domain-binding protein 11: MGRRSTSSTKSGKFMNPTDQARKEARKRELKKNKKQRMMVRAAVLKMKDPKQIIRDMEKLDEMEFNPVQQPQLNEKVLKDKRKKLRETFERILRLYEKENPDIYKELRKLEVEYEQKRAQLSQYFDAVKNAQHVEVESIPLPDMPHAPSNILIQDIPLPGAQPPSILKKTSAYGPPTRAVSILPLLGHGVPRLPPGRKPPGPPPGPPPPQVLQMYGRKVGFALDLPPRRRDEDMLYSPELAQRGHDDDMSSTSEDDGYPEDMDQDKHDDSTEDSDTDRSDAESDGDEFGHRDDSERDNTEEKKSGLSVRFADMPGKSRKKKKNMKELTPLQAMMLRMAGQEIPEEGREVEEFSEEEDDDDSEDSEAEKPSQKQHKEDSHADGSSAASSQQQAPPQAVPPSQIQAPPMPGPPPLGPPPAPPLRPPGPPTGLPPGPPPGAPPFLRPPGMPGIRGPLPRLLPPGPPPGRPPGPPPGPPPGLPPGPPPRGPPPRLPPPAPPGIPPPRPGMMRPPLVPPLGPAPPGLFPPAPLPNPGVLSAPPSLIQRPKADDASAATIEKKATATISAKPQITNPKAEVTRFVPTALRVRRENKGATAVPQRRSEEDSAVPVAKAAPRSGPSVPVSVQTKDDVYEAFMKEMEGLL
modifications: phosphorylated at S600
B4: Acadvl pT513 (protein, UniProt P45953 41-655, looked up)
Very long-chain specific …: ASEATQAVLEKPETLSSDASTREKPARAESKSFAVGMFKGQLTTDQVFPYPSVLNEGQTQFLKELVGPVARFFEEVNDPAKNDSLEKVEEDTLQGLKELGAFGLQVPSELGGLGLSNTQYARLAEIVGMHDLGVSVTLGAHQSIGFKGILLYGTKAQKEKYLPRVASGQALAAFCLTEPSSGSDVASIRSSAVPSPCGKYYTLNGSKIWISNGGLADIFTVFAKTPIKDAATGAVKEKITAFVVERSFGGVTHGLPEKKMGIKASNTSEVYFDGVKVPAENVLGEVGDGFKVAVNILNNGRFGMAATLAGTMKAIIAKAVDHATNRTQFGDKIHNFGVIQEKLARMAILQYVTESMAYMLSANMDQGFKDFQIEAAISKIFGSEAAWKVTDECIQIMGGMGFMKEPGVERVLRDIRIFRIFEGTNDILRLFVALQGCMDKGKELTGLGNALKNPLGNVGLLIGEASKQLRRRTGIGSGLSLSGIVHPELSRSGELAVQALEQFATVVEAKLMKHKKGIVNEQFLLQRLADGAIDLYAMVVVLSRASRSLSEGYPTAQHEKMLCDSWCIEAATRIRENMASLQSNPQQQELFRNFRSISKAMVENGGLVTSNPLRV
modifications: phosphorylated at T513
B5: Hdlbp pS74 (protein, UniProt Q9Z1A6 2-1268, looked up)
Vigilin: SSVAVLTQESFAEHRSGLVPQQIIVATLNSEEESDPPTYKDAFPPLPEKAACLESAQEPAGAWSNKIRPIKASVITQVFHVPLEERKYKDMNQFGEGEQAKICLEIMQRTGAHLELSLAKDQGLSIMVSGKLDAVMKARKDIVARLQTQASATVPIPKEHHRFVIGKNGEKLQDLELKTATKIQIPRPDDPSNQIKITGTKEGIEKARHEVLLISAEQDKRAVKRLEVEKAFHPFIAGPYNRLVGEIMQETGTRINIPPPSVNRTEIVFTGEKEQLAQAVARIKKIYEEKKKKTTTIAVEVKKSQHKYVIGPKGNSLQEILERTGVSVEIPPSDSISETVILRGEPEKLGQALTEVYAKANSFTVSSVSAPSWLHRFIIGKKGQNLAKITHQMPKVHIEFTEGEDKITLEGPTEDVNVAQEQIEGMVKDLINRMDYVEINIDHKFHRHLIGKSGANINRIKDQYKVSVRIPPDSEKSNLIRIEGDPQGVQQAKRELLELASRMENERTKDLIIEQRFHRTIIGQKGERIREIRDKFPEVIINFPDPAQKSEIVQLRGPKNEVEKCTKYMQKMVADLVENSYSISVPIFKQFHKNIIGKGGANIKKIREESNTKIDLPAENSNSETIVITGKRANCEAARSRILSIQKDLANIAEVEVSIPAKLHNSLIGTKGRLIRSIMEECGGVHIHFPVEGSGSDTVVIRGPSSDVEKAKKQLLHLAEEKQTKSFTVDIRAKPEYHKFLIGKGGGKIRKVRDSTGARIIFPAAEDKDQDLITIIGKEDAVREAQKELEALIQNLDNVVEDYMLVDPRHHRHFVIRRGQVLREIAEEYGGVMVSFPRSGTQSDKVTLKGAKDCVEAAKKRIQEIIEDLEAQVTLECAIPQKFHRSVMGPKGSRIQQITRDYNVQIKFPDREENPVHSVEPSIQENGDEAGEGREAKETDPGSPRRCDIIVISGRKEKCEAAKEALEALVPVTIEVEVPFDLHRYIIGQKGSGIRKMMDEFEVNIHVPAPELQSHTIAITGLAANLDRAKAGLLDRVKELQAEQEDRALRSFKLSVTVDPKYHPKIIGGKGAVITQIRLEHDVNIQFPDKDDGNQPQDQITITGYEKNTEAARDAILKIVGELEQMVSEDVPLDHRVHARIIGARGKAIRKIMDEFKVDIRFPQSGAPDPNCVTVTGLPENVEEAIDHILNLEEEYLADVVDSEALQVYMKPPAHEESKAPSKGFVVRDAPWTSNSSEKAPDMSSSEEIPTFGAQVAPKTLPWGPKR
modifications: phosphorylated at S74
B6: PKGIα: recombinant PKGIα; Cys42 interchain disulfide bond (protein)
chain: MSELEEDFAKILMLKEERIKELEKRLSEKEEEIQELKRKLHKCQSVLPVPSTHIGPRTTRAQGISAEPQTYRSFHDLRQAFRKFTKSERSKDLIKEAILDNDFMKNLELSQIQEIVDCMYPVEYGKDSCIIKEGDVGSLVYVMEDGKVEVTKEGVKLCTMGPGKVFGELAILYNCTRTATVKTLVNVKLWAIDRQCFQTIMMRTGLIKHTEYMEFLKSVPTFQSLPEEILSKLADVLEETHYENGEYIIRQGARGDTFFIISKGTVNVTREDSPSEDPVFLRTLGKGDWFGEKALQGEDVRTANVIAAEAVTCLVIDRDSFKHLIGGLDDVSNKAYEDAEAKAKYEAEAAFFANLKLSDFNIIDTLGVGGFGRVELVQLKSEESKTFAMKILKKRHIVDTRQQEHIRSEKQIMQGAHSDFIVRLYRTFKDSKYLYMLMEACLGGELWTILRDRGSFEDSTTRFYTACVVEAFAYLHSKGIIYRDLKPENLILDHRGYAKLVDFGFAKKIGFGKKTWTFCGTPEYVAPEIILNKGHDISADYWSLGILMYELLTGSPPFSGPDPMKTYNIILRGIDMIEFPKKIAKNAANLIKKLCRDNPSERLGNLKNGVKDIQKHKWFEGFNWEGLRKGTLTPPIIPSVASPTDTSNFDSFPEDNDEPPPDDNSGWDIDF
modifications: intermolecular disulfide bond at Cys42 between the two subunits

Assays:
[1] = tested on: PKGIα (analogue-sensitive C42S/M438G), cGMP-activated; test: Chemical genetic phosphoproteomic screen, cGMP-activated PKGIα C42S/M438G versus unactivated control; type: biochemical, human PKGIα; substrates in rat heart homogenate; conditions: for log2 fold changes: Group 1 (cGMP-activated) vs Group 3 (control)
Summary of the method: (§1)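 Substrates in rat left-ventricle homogenate (20 mg ml) are labelled by engineered Met438Gly PKGIα given a bulky N6-alkylated ATPγS analogue, either as disulfide-activated M438G (oxidized, DTT-free) or as cGMP-activated C42S/M438G. Covalent capture and LC–MS/MS identify sites relative to unactivated kinase.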

[2] = tested on: PKGIα (analogue-sensitive M438G), disulfide-activated; test: Chemical genetic phosphoproteomic screen, disulfide-activated PKGIα M438G versus unactivated control; type: biochemical, human PKGIα; substrates in rat heart homogenate; conditions: for log2 fold changes: Group 2 (disulfide-activated) vs Group 3 (control)
Summary of the method: as §1

[3] = tested on: PKGIα Cys42 interchain disulfide bond; test: Dihydrolipoic acid/lipoic acid redox titration of recombinant PKGIα, disulfide dimerization by SDS-PAGE; type: physicochemical; conditions: in vitro, unpublished data
Excerpt: PhD thesis (2015) by Daniel Stubbert from this lab. We have amended the manuscript so that it now states that the PKGIα Cys42 disulfide bond is reversible and referenced the literature detailing the auranofin experiments described above:
“Reactive oxygen species (ROS) promote formation of a reversible intermolecular disulfide bond between the two subunits of the PKGIα homodimer at Cys424,5.”
Furthermore, in relation to reversibility, we also have unpublished data relating to the thermodynamic stability of the Cys42 interchain disulfide bond in vitro. We have performed a dihydrolipoic acid/lipoic acid redox titration with recombinant PKGIα and analysed the amount of disulfide dimerization by SDS-PAGE. The equilibrium redox potential was determined as approximately −280 mV; a value within the conﬁnes of the cellular redox potenƟal which ranges from ~−350 to –150 mV depending on e.g. the organelle an d stage of the cell cycle (Jones, D. P.
Journal of Internal Medicine 268, 432-448 (2010); Jones, D. P. American Journal of Physiology - Cell […]
consistent with our findings from tissue and cells, and arguably ex actly what would be expected of a protein that is required to rapidly transduce an oxidant signal into a biological response.
--What are the consequences of cys42 oxidation for cGMP activation of PKG? […]

Molecule | log2 fold changes [1] | log2 fold changes [2] | log2 fold change cGMP vs Control ([1]; control = PKGIα C42S/M438G) | log2 fold change Disulfide vs Control ([2]; control = PKGIα C42S/M438G) | equilibrium redox potential of the Cys42 interchain disulfide bond [3]
B1 | 3.435 | 0.04396 | – | – | –
B2 | – | – | 0.2997 | -0.4793 | –
B3 | 4.049 | 2.503 | – | – | –
B4 | 3.595 | -0.899 | – | – | –
B5 | 3.955 | 0.4352 | – | – | –
B6 | – | – | – | – | approximately −280 mV
